Assay results as given in the supplement of paper PMC9170038.

Tested on: MS2 coat protein
Assay: apparent KD of MS2 coat protein; higher = weaker reporter binding
Details: Eterna round: R107
Summary of the method: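 Designed RNA switches were transcribed on-chip from Illumina sequencing clusters. They were then titrated with SNAP-549-labelled MS2 coat protein (twofold steps, 0.7 or 1.5 nM to 3 µM; 0.8–1.5 h to 10–20 min per step) in 100 mM Tris-HCl pH 7.5, 80 mM KCl, 4 mM MgCl2, without or with constant ligand. Apparent KD is the per-design median of normalised cluster binding-curve fits.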

[1] = input ligand: theophylline 20 uM
[2] = input ligand: tryptophan 2.4 mM
[3] = input ligand: theophylline 2 mM

| Sequence | apparent KD of MS2 coat protein (input ligand: arginine 13.2 mM) [nM] | apparent KD of MS2 coat protein [1] [nM] | apparent KD of MS2 coat protein [2] [nM] | apparent KD of MS2 coat protein (input ligand: none) [nM] | apparent KD of MS2 coat protein [3] [nM] |
| --- | --- | --- | --- | --- | --- |
| CUUGUCGUAACUGAUACCAGUGUACUGACAUGAGGAUCACCCAUGUUGGGUUUUGUUGUACACCCUUGGCAGCAGAAUCGAUAAG [AstrosExyTheB#9] | 68.8 | 95.3 | 71.3 | – | – |
| CUUGUGGUCGGAAGGAGCGCGAUUACAUAACAUGAGGAUCACCCAUGUAAGAAAUUAUUCAUGCAGGUAGGUCGCCGGUCGUGGG [Same State Arginine B GF10] | 22 | 29.6 | 21.8 | 21.4 | 22.6 |
| CUUGUUUGUGGAAGGAGCGCGAUUACAUAACAUGAGGAUCACCCAUGUAAGAAAUUAUUCAUGCAGGUAGGUCGCCAUUGGUGGG [Same State Arginine B GF8] | 64.1 | 53.1 | 30.6 | 62.2 | 23.7 |
| GAACAUAAGGAUAGUAUAAUAACUACAGAAGGAGCGUCAGGAAGGACAGGUAGGUCGCUGGAAGACAUGAGGAUCACCCAUGUUU [#03 Same State - Arginine A] | 20.6 | 28.8 | 17.1 | 21.4 | 21.1 |
| GAACAUAAGGAUAGUAUAAUGACUACAGAAGGAGCGUCAGGAAGGACAGGUAGGUCGCUGGAAGACAUGAGGAUCACCCAUGUUU [Arg A SS t2] | 25.6 | 35.3 | 19.4 | 22.8 | 24.5 |
| GAAGAGACCUCGGCCGCCACUCGCCAUGAGGAUCUCCCAUGUAACAUGAGGAUCACCCAUGUACAGAGGACCGGGAGGUCCUAGU [Same State Tryptophan B GF 14] | 12.8 | 39.1 | 50.1 | 21.2 | 24.8 |
| GAAUAUUACAUGAGGAUCACCCAUGUAGAUACCAGCCUUGAUUGUGGCCCUUGGCAGCUACGCCGUGAAUGCCUCAGUUGCUUAC [Atidi] | 36.8 | 121 | 72 | – | – |
| GAAUUUUAUUGAAGGAGCGUCGAAAAUGGGUAAACAUGAGGAUCACCCAUGUAAAGGGAACGACAGGUAGGUCGCAAUAGGAUUC [AstromonsSSArgB#28] | 140 | 188 | 151 | 177 | 247 |
| GACAUGAGGAUCACCCAUGUACCGCGAGAAGGAGCGCGGAUAAACGCAGGUAGGUCGCUCGUGGGCUCACAUUCAAUCGUAAGCU [Azaesisma] | 50.9 | 116 | 77.7 | 98.6 | 165 |
| GACAUGAGGAUCACCCAUGUGUAACCAGAAGGAGCGUGCGAAAGCACAGGUAGGUCGCUGGUGGGUUUAGGUUUAGUAGGUGUUC [SSAA NP+V+V2 #3] | 87.6 | 100 | 56.4 | 69.2 | 139 |
| GACAUGAGGAUCACCCAUGUUUGCUAUGAAGGAGCGUCGGAAAUGACAGGUAGGUCGCAUAGUAGGCCUUGUAUUUUGUGUGUUU [EAA #8] | 11.4 | 14.4 | 10.5 | 10.1 | 10.8 |
| GACGCAUGAGUUGGAACAGCUCAUGGGUCGCGAGGACCGGUACGGCCGCCACUCGGCUGUACAUGAGGAUCACCCAUGUCAGGGU [#1 Same State - Tryptophan A Attempt #30 (HarryS)] | 72.7 | 329 | – | – | 942 |
| GAGACGUCGGGAAGGAGCGCAUCAAAACCACACAUGAGGAUCACCCAUGUAUAAAUAUGCAUGCAGGUAGGUCGCCCGGUGUCCA [SS-ArgB16] | 24.2 | 33.6 | 29.1 | 27.1 | 33.1 |
| GAGCGCAGUUUACAACAUACUAACACAGAUACCAGAAAUUUUAUGUUCCCUUGGCAGCUGACAACAUGAGGAUCACCCAUGUGCU [theeternabot_exclusion_MS2_Theo_A_27] | 17.5 | 21.2 | 15.7 | – | – |
| GAGCUGAUGUAGGGUGGAUAUCCUUGAGAUACCAGUACAGAAAUGUACCCUUGGCAGCUCUUCCUUACAUGAGGAUCACCCAUGU [Ex Theophylline A 25] | 18.9 | 23.5 | 20.4 | – | – |
| GAGUAGAAGACGGCCGCCACUAAACAUGAGGAUCACCCAUGUCGUGAUCCGUUACCUAGAGUAGAUAGGACCGGGUCAUAUAGUC [Exclusion Tryptophan B GF 15] | 27.5 | 41.5 | – | – | 30.2 |
| GAGUUCCUGAGAGAUACCAGUGAAGCCACAUGAGGAUCACCCAUGUCCCUCACUCCGGCCCACCCUUGGCAGCUCGAAAGAUGGA [Exclusion Theophylline B GF 21] | 83.7 | 132 | 141 | 105 | 403 |
| GAGUUCCUGAGAGAUACCAGUGAGGCCACAUGAGGAUCACCCAUGUCCCUCACUCCGGCCCACCCUUGGCAGCUCGAAAGAUAUU [Exclusion Theophylline B GF 22] | 11.3 | 16.7 | 12.1 | – | – |
